± gives the uncertainty stated by the source.

This is an account of results in the supplement of paper PMC7877785.

The nature of the data set: self-splicing fitness, log relative to wild type (ln ratio); higher = more splicing; Tetrahymena group I intron in knt gene, E. coli kanamycin selection, DiMSum; sequences stand for … in CUCUCU…GGAGGGAAAAGUUAUCAGGCAUGCACCUGGUAGCUAGUCUUUAAACCAAUAGAUUGCAUCGGUUUAAAAGGCAAGACCGUCAAAUUGCGGGAAAGGGGUCAACAGCCGUUCAGUACCAAGUCUCAGGGGAAACUUUGAGAUGGCCUUGCAAAGGGUAUGGUAAUAAGCUGACGGACAUGGUCCUAACCACGCAGCCAAGUCCUAAGUCAACAGAUCUUCUGUUGAUAUGGAUGCAGUUCACAGACUAAAUGUCGGUCGGGGAAGAUGUAUUCUUCUCAUAAGAUAUAGUCGGACCUCUCCUUAAUGGGAGCUAGCGGAUGAAGUGAUGCAACACUGGAGCCGCUGGGAACUAAUUUGUAUGCGAAAGUAUAUUGAUUAGUUUUGGAGUACUCGUGGUCG
In a few lines: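 A randomised library covering all eight P1ex-region intron nucleotides was built with the intron in the knt kanamycin-resistance gene on pET-22b(+) and held in E. coli BL21(DE3). Cells were grown overnight at 37°C or 30°C on LB agar, with or without 25 μg/mL kanamycin, plus 100 μg/mL carbenicillin, 50 μM IPTG and 0.2% rhamnose, and pooled colonies were amplicon-sequenced on an Illumina HiSeq 2500. DiMSum fitness is the error-weighted combination of wild-type-normalised replicate fold changes, kanamycin versus none.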

For UUGCAGCAAUAUUACGGAUC, the “self-splicing fitness (ln)” value runs as follows: (30 °C) -3.22 ± 0.27; (37 °C) -2.93 ± 0.37. Taken in the same sequence, the figures for CGCCAGCAAUAUUACGCCAG were -0.963 ± 0.12 and -0.172 ± 0.15. Taken in the same sequence, the figures for GUAGAGCAAUAUUACGCACG were -0.718 ± 0.24 and -1.99 ± 0.27. In the same order, the values of CAUCAGCAAUAUUACGUACU are -2.68 ± 0.18 and -1.65 ± 0.22. With UUGUAGCAAUAUUACGUGAA, the “self-splicing fitness (ln)” value was -1.87 ± 0.14 (30 °C) and -0.614 ± 0.14 (37 °C). Regarding AGUCAGCAAUAUUACGAUCU, the “self-splicing fitness (ln)” value (30 °C) is -0.19 ± 0.07 and the “self-splicing fitness (ln)” value (37 °C) amounted to 0.36 ± 0.09. Taken in the same sequence, the figures for UUACAGCAAUAUUACGGUAG were -1.92 ± 0.12 and -0.729 ± 0.13. In the same order, the values of GAGUAGCAAUAUUACGGUUG are -2.7 ± 0.2 and -1.06 ± 0.2. Take UAGGAGCAAUAUUACGUUAC: the “self-splicing fitness (ln)” value (37 °C) was -2.08 ± 0.32.

CUGCAGCAAUAUUACGAACU: the “self-splicing fitness (ln)” value (30 °C) is -2.75 ± 0.3 and the “self-splicing fitness (ln)” value (37 °C) is -2.34 ± 0.33.

Turning to UGUGAGCAAUAUUACGGAUU, the “self-splicing fitness (ln)” value (37 °C) is -1.59 ± 0.34. The same measure, in the same setting: the same measure for UCAUAGCAAUAUUACGGGCU: -2.19 ± 0.32. On to CGCAAGCAAUAUUACGACCC, for which the “self-splicing fitness (ln)” value was -2.18 ± 0.3 (30 °C) and 0.0863 ± 0.29 (37 °C).

With CUUCAGCAAUAUUACGCAUC, the “self-splicing fitness (ln)” value by setting is: (30 °C) -2.85 ± 0.22; (37 °C) -2.68 ± 0.22. Taken in the same sequence, the figures for UCCUAGCAAUAUUACGUUUC were -2.36 ± 0.4 and -3.04 ± 0.43.

Consider UUAUAGCAAUAUUACGGUAG, for which the “self-splicing fitness (ln)” value (30 °C) was -1.38 ± 0.14 and the “self-splicing fitness (ln)” value (37 °C) was -0.483 ± 0.14. Taken in the same sequence, the figures for ACAAAGCAAUAUUACGUUUG were -2.98 ± 0.1 and -1.65 ± 0.12. In the same order, the values of ACGAAGCAAUAUUACGGUGG are -3.93 ± 0.15 and -2.56 ± 0.23. Taken in the same sequence, the figures for AUGAAGCAAUAUUACGCUUA were -0.65 ± 0.061 and -0.151 ± 0.075.

For the sequence AGUCAGCAAUAUUACGCCAC, the “self-splicing fitness (ln)” value by setting is: (30 °C) -3.68 ± 0.18; (37 °C) -3.11 ± 0.19.

For the sequence CUGGAGCAAUAUUACGCUGU, the “self-splicing fitness (ln)” value (37 °C) is -3.04 ± 0.48. Same read-out and setting: to CUGUAGCAAUAUUACGCUAU belongs -0.73 ± 0.29. Turning to GCUGAGCAAUAUUACGCUUC, the “self-splicing fitness (ln)” value runs as follows: (30 °C) -2.38 ± 0.15; (37 °C) -3.41 ± 0.39. In the same order, the values of CAAGAGCAAUAUUACGAGCC are -4.42 ± 0.34 and -2.31 ± 0.32.

Consider GAGUAGCAAUAUUACGUGCA, for which the “self-splicing fitness (ln)” value runs as follows: (30 °C) -1.35 ± 0.14; (37 °C) 0.558 ± 0.2. Taken in the same sequence, the figures for AAGUAGCAAUAUUACGAACG were -1.86 ± 0.11 and -1.17 ± 0.13. In the same order, the values of CUAAAGCAAUAUUACGGAAG are -0.274 ± 0.062 and 0.0341 ± 0.083. Consider GCAAAGCAAUAUUACGUAUU, for which the “self-splicing fitness (ln)” value is, setting by setting: (30 °C) -2.65 ± 0.075; (37 °C) -1.29 ± 0.081.

Turning to GGACAGCAAUAUUACGCGGC, the “self-splicing fitness (ln)” value (30 °C) is -3.12 ± 0.22 and the “self-splicing fitness (ln)” value (37 °C) was -2.76 ± 0.34. In the same order, the values of GCCUAGCAAUAUUACGUAAG are -1.83 ± 0.088 and -0.757 ± 0.11. Take UUGCAGCAAUAUUACGGCGG: the “self-splicing fitness (ln)” value by setting is: (30 °C) -1.7 ± 0.081; (37 °C) -1.01 ± 0.11. Taken in the same sequence, the figures for UACCAGCAAUAUUACGAUCC were -1.4 ± 0.15 and -1.84 ± 0.26. Taken in the same sequence, the figures for UCUCAGCAAUAUUACGAGGA were -3.23 ± 0.26 and -1.77 ± 0.14. Taken in the same sequence, the figures for UCAGAGCAAUAUUACGACUG were -1.67 ± 0.19 and -0.645 ± 0.2. In the case of AGAUAGCAAUAUUACGAGGC, the “self-splicing fitness (ln)” value (30 °C) was -0.902 ± 0.39 and the “self-splicing fitness (ln)” value (37 °C) was -0.819 ± 0.21. Taken in the same sequence, the figures for CUAUAGCAAUAUUACGAGAG were -3.63 ± 0.23 and -2.73 ± 0.24.

Consider ACUGAGCAAUAUUACGAGUA, for which the “self-splicing fitness (ln)” value (37 °C) was -1.6 ± 0.2. Consider GAACAGCAAUAUUACGGUCC, for which the “self-splicing fitness (ln)” value is, setting by setting: (30 °C) -4.14 ± 0.25; (37 °C) -0.683 ± 0.13.

Regarding UGCGAGCAAUAUUACGUACU, the “self-splicing fitness (ln)” value is, setting by setting: (30 °C) -2.58 ± 0.24; (37 °C) -1.23 ± 0.22. UCGUAGCAAUAUUACGAGGA: the “self-splicing fitness (ln)” value is -3.72 ± 0.39 (30 °C) and -2.58 ± 0.29 (37 °C). Turning to AAUCAGCAAUAUUACGGCGG, the “self-splicing fitness (ln)” value is, setting by setting: (30 °C) -1.05 ± 0.1; (37 °C) 0.206 ± 0.14. As to AAACAGCAAUAUUACGCCCA, the “self-splicing fitness (ln)” value by setting is: (30 °C) -1.29 ± 0.15; (37 °C) -0.816 ± 0.15. As to GAACAGCAAUAUUACGGCGG, the “self-splicing fitness (ln)” value (30 °C) was -3.13 ± 0.16 and the “self-splicing fitness (ln)” value (37 °C) is -0.604 ± 0.12. Consider AGGCAGCAAUAUUACGUUGC, for which the “self-splicing fitness (ln)” value (30 °C) is -4.18 ± 0.36 and the “self-splicing fitness (ln)” value (37 °C) was -2.13 ± 0.29. Taken in the same sequence, the figures for GCAGAGCAAUAUUACGACGU were -0.995 ± 0.14 and -1.5 ± 0.18. For the sequence CAACAGCAAUAUUACGACCA, the “self-splicing fitness (ln)” value was -1.66 ± 0.099 (30 °C) and -0.585 ± 0.097 (37 °C). In the same order, the values of UCCGAGCAAUAUUACGGGAG are -3.81 ± 0.22 and -2.79 ± 0.19. As to GUUUAGCAAUAUUACGACAC, the “self-splicing fitness (ln)” value (30 °C) is -0.84 ± 0.091 and the “self-splicing fitness (ln)” value (37 °C) came out at 0.0746 ± 0.14. In the same order, the values of AAUAAGCAAUAUUACGGCAU are 0.0296 ± 0.085 and -0.0272 ± 0.097. For the sequence AAGGAGCAAUAUUACGUAGC, the “self-splicing fitness (ln)” value (37 °C) was -2.18 ± 0.42. CACGAGCAAUAUUACGCAAU: the “self-splicing fitness (ln)” value (30 °C) is -4.23 ± 0.19 and the “self-splicing fitness (ln)” value (37 °C) is -2.99 ± 0.16.

Take GCUCAGCAAUAUUACGCCGU: the “self-splicing fitness (ln)” value (30 °C) was -0.521 ± 0.14 and the “self-splicing fitness (ln)” value (37 °C) is -1.61 ± 0.22. Taken in the same sequence, the figures for GGCAAGCAAUAUUACGAUUG were -3.03 ± 0.19 and -1.64 ± 0.16.

Regarding ACUAAGCAAUAUUACGCGAG, the “self-splicing fitness (ln)” value (30 °C) was -1.77 ± 0.082 and the “self-splicing fitness (ln)” value (37 °C) was -0.355 ± 0.089.

Regarding UGAAAGCAAUAUUACGUGGA, the “self-splicing fitness (ln)” value is, setting by setting: (30 °C) -2.89 ± 0.15; (37 °C) -2.69 ± 0.18. In the same order, the values of UAUUAGCAAUAUUACGUAGU are -2.56 ± 0.26 and -2.47 ± 0.35. On to UCUGAGCAAUAUUACGAGAC, for which the “self-splicing fitness (ln)” value (30 °C) was -2.52 ± 0.17.

UCGGAGCAAUAUUACGGUUC: the “self-splicing fitness (ln)” value (37 °C) is -2.89 ± 0.43. Regarding CCCGAGCAAUAUUACGUACA, the “self-splicing fitness (ln)” value (30 °C) was -2.87 ± 0.19 and the “self-splicing fitness (ln)” value (37 °C) is -2.25 ± 0.24. Taken in the same sequence, the figures for UUACAGCAAUAUUACGUUAU were -1.91 ± 0.087 and -1.98 ± 0.14.

For GCGCAGCAAUAUUACGUACA, the “self-splicing fitness (ln)” value runs as follows: (30 °C) -1.49 ± 0.084; (37 °C) -0.256 ± 0.088. In the same order, the values of AUUUAGCAAUAUUACGAUCG are -1.76 ± 0.15 and -0.669 ± 0.12. For the sequence UCGUAGCAAUAUUACGCGCG, the “self-splicing fitness (ln)” value (30 °C) was -1.62 ± 0.12 and the “self-splicing fitness (ln)” value (37 °C) is -1.34 ± 0.15. In the same order, the values of GAAUAGCAAUAUUACGUUGG are -3.3 ± 0.16 and -2.77 ± 0.2. Taken in the same sequence, the figures for UCUGAGCAAUAUUACGCAAU were -2.13 ± 0.16 and -2.97 ± 0.21. Taken in the same sequence, the figures for UUCCAGCAAUAUUACGCUGG were -3.73 ± 0.27 and -2.51 ± 0.31. For GUAGAGCAAUAUUACGCUCA, the “self-splicing fitness (ln)” value is, setting by setting: (30 °C) -0.751 ± 0.1; (37 °C) -0.0338 ± 0.16. As to AGUCAGCAAUAUUACGGUGC, the “self-splicing fitness (ln)” value is -1.68 ± 0.14 (30 °C) and -1.07 ± 0.19 (37 °C). Take CCUCAGCAAUAUUACGAGUA: the “self-splicing fitness (ln)” value is -3.06 ± 0.21 (30 °C) and -2.38 ± 0.21 (37 °C). For ACGGAGCAAUAUUACGCAAC, the “self-splicing fitness (ln)” value (37 °C) was -2.4 ± 0.35.

As to CGACAGCAAUAUUACGUAGG, the “self-splicing fitness (ln)” value runs as follows: (30 °C) -0.919 ± 0.062; (37 °C) -0.934 ± 0.076. Taken in the same sequence, the figures for CAGCAGCAAUAUUACGAUGG were -0.264 ± 0.07 and 0.177 ± 0.092. Take CCCUAGCAAUAUUACGAUCG: the “self-splicing fitness (ln)” value is -3.91 ± 0.35 (30 °C) and -1.47 ± 0.18 (37 °C).

Take AACCAGCAAUAUUACGGGAU: the “self-splicing fitness (ln)” value is -2.59 ± 0.097 (30 °C) and -1.6 ± 0.098 (37 °C). Consider UCGCAGCAAUAUUACGUCAG, for which the “self-splicing fitness (ln)” value is, setting by setting: (30 °C) -1.59 ± 0.12; (37 °C) 0.604 ± 0.15. Taken in the same sequence, the figures for UCAUAGCAAUAUUACGGCUA were -2.69 ± 0.27 and -2.37 ± 0.39. In the same order, the values of GCUUAGCAAUAUUACGCGUC are -0.947 ± 0.13 and -0.88 ± 0.13. In the same order, the values of GAUUAGCAAUAUUACGGUAA are -1.83 ± 0.23 and -1.5 ± 0.17.
